Source: PMC11093223 (2024)

Key:
Assay in all cases: ITC
SLAMF7 = biological target: T1, SLAMF7 (Homo sapiens (Human), UniProt Q9NQ25)
T1 chain: EDPANTVYSTVE

FAM174C = biological target: T2, FAM174C (Homo sapiens (Human), UniProt Q9BVV8)
T2 chain: DSDEETVFES

CIMPR = biological target: T3, CIMPR (Homo sapiens (Human), UniProt P11717)
T3 chain: EEETDENETEWLM

KIAA0319 = biological target: T4, KIAA0319 (Homo sapiens (Human), UniProt Q5VV43)
T4 chain: ESEFDSDQDTIF

NPDC1 = biological target: T5, NPDC1 (Homo sapiens (Human), UniProt Q9NQX5)
T5 chain: DEENEDGDFTVYEC

CPD = biological target: T6, CPD (Homo sapiens (Human), UniProt O75976)
T6 chain: EEETLYSSKH

- Kd (SLAMF7): > 100 µM
- Kd (FAM174C): 15.7 µM
- Kd (CIMPR): > 100 µM
- Kd (KIAA0319): 35.2 µM
- Kd (NPDC1): 2.9 µM
- Kd (CPD): 10.6 µM
B1: TBC1D23 (protein)
chain: DRKEVVNIQTWINKPDIKHHFPCKEVKESGHMFPSHLLVTATHMYCLREILSRKGLAYIQSRQALNSVVKITSKKKHPELITFKYGNSSASGIEILAIERYLIPNAGDATRAIKQQIMKVLDALES
